Test results published in patent US20130004416A1 (published 2013).

Key:
human IL-18 [1] = biological target: T1, human IL-18 (human, UniProt Q14116 37-193); test: SPR (Biacore)
T1 construct: also called hIL-18

human IL-12 [2] = biological target: T2, human IL-12 (human, UniProt P29459 23-219; P29460 23-328); test: SPR (Biacore)
T2 construct: ABT874 is said to be against human IL-12p40; also called hIL-12
T2 sequence (looked up) 1: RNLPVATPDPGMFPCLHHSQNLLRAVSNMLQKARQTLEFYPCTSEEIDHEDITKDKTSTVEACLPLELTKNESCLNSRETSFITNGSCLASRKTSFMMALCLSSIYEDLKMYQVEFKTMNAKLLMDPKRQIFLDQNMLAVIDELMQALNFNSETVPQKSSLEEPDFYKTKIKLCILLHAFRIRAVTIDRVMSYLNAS
T2 sequence (looked up) 2: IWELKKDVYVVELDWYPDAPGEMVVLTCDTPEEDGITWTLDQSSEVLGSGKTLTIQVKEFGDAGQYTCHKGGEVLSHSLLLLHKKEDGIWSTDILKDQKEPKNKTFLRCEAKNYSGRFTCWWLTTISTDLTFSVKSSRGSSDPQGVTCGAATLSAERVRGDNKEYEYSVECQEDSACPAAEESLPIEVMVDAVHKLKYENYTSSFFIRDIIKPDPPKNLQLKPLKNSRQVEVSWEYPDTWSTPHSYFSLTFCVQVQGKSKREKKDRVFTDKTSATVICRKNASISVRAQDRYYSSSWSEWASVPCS

human IL-18 [3] = biological target: T1, human IL-18; test: cell-based or functional assay
human IL-12 [4] = biological target: T2, human IL-12; test: cell-based or functional assay

B1: DVD1812SL (DVD1812HC-SL / DVD1812LC-SL) (bispecific antibody)
chain 1: not shown
chain 2: EIVMTQSPATLSVSPGERATLSCRASESISSNLAWYQQKPGQAPRLFIYTASTRATDIPARFSGSGSGTEFTLTISSLQSEDFAVYYCQQYNNWPSITFGQGTRLEIKRTVAAPQSVLTQPPSVSGAPGQRVTISCSGSRSNIGSNTVKWYQQLPGTAPKLLIYYNDQRPSGVPDRFSGSKSGTSASLAITGLQAEDEADYYCQSYDRYTHPALLFGTGTKVTVLGTVAAPSVFIFPPSDEQLKSGTASVVCLLNNFYPREAKVQWKVDNALQSGNSQESVTEQDSKDSTYSLSSTLTLSKADYEKHKVYACEVTHQGLSSPVTKSFNRGEC
Kd (human IL-18 [1]): 191 pM | Kd (human IL-12 [2]): 1820 pM | Potency (IC50, M), KG-1 bioassay (human IL-18 [3]): 4e-11 M | Potency (IC50, M), IL-12-induced IFN-γ production by PHA blast cells (human IL-12 [4]): 3.66e-10 M

B2: DVD1812LL (DVD1812HC-LL / DVD1812LC-LL) (bispecific antibody)
heavy: not shown
light: EIVMTQSPATLSVSPGERATLSCRASESISSNLAWYQQKPGQAPRLFIYTASTRATDIPARFSGSGSGTEFTLTISSLQSEDFAVYYCQQYNNWPSITFGQGTRLEIKRTVAAPSVFIFPPQSVLTQPPSVSGAPGQRVTISCSGSRSNIGSNTVKWYQQLPGTAPKLLIYYNDQRPSGVPDRFSGSKSGTSASLAITGLQAEDEADYYCQSYDRYTHPALLFGTGTKVTVLG
Kd (human IL-18 [1]): 162 pM | Kd (human IL-12 [2]): 113 pM | Potency (IC50, M), KG-1 bioassay (human IL-18 [3]): 7.8e-11 M | Potency (IC50, M), IL-12-induced IFN-γ production by PHA blast cells (human IL-12 [4]): 1.18e-10 M
